Results as given in patent US5985836A, “Alpha-1 proteinase inhibitor binding peptides” (Bayer Corporation, priority 1998, dated 1999).
Ends that are not written are not given here.

Target: T1, A1PI (Homo sapiens, UniProt P01009)
T1 construct: Human plasma is currently the only approved source of therapeutic AlPI
Test: A1PI binding on peptide-resin column, injection of 1 mg A1PI in equilibration buffer
Details: for Percent AlPI Eluted by Fraction, 1M NaCl / Percent AlPI Eluted by Fraction, 2% Acetic Acid / Percent AlPI Eluted by Fraction, Flowthrough: sequence order, 1 mg AlPI; for % of Total A1PI Eluted by Fraction (Based on Absorbance at 280 nm), 1M NaCl / % of Total A1PI Eluted by Fraction (Based on Absorbance at 280 nm), 2% Acetic Acid / % of Total A1PI Eluted by Fraction (Based on Absorbance at 280 nm), Flowthrough: 1 mg A1PI; for Percent A1PI Eluted by Fraction Based on Absorbance at 280 nm, 1M NaCl / Percent A1PI Eluted by Fraction Based on Absorbance at 280 nm, 2% Acetic Acid / Percent A1PI Eluted by Fraction Based on Absorbance at 280 nm, Flowthrough / Percent A1PI Eluted by Fraction, 1M NaCl / Percent A1PI Eluted by Fraction, 2% Acetic Acid / Percent A1PI Eluted by Fraction, Flowthrough: 1 mg A1PI in equilibration buffer
Method: Confirmatory binding assays were performed in a column chromatographic format on a microbore HPLC using individual peptide sequences synthesized directly onto the Toyopearl 650 M Chelate resin which had been modified with Totda followed by an alanine residue (A-Totda-Toyopearl), at a final substitution density of 0.1 mmole/g resin. The resin was packed into 0.4×5 cm columns (Thomson, Springfield, Va.) and tested on the Michrom HPLC system (Michrom BioResources, Auburn, Calif.). The elution program for all trials utilized the following method. The column was pre-equilibrated with equilibration buffer (as above). 1 ml of sample was injected and allowed sufficient time to flowthrough the column using equilibration buffer. The column was then washed with step elutions of 1M NaCl and 3M NaCl in equilibration buffer. The column was exposed to equilibration buffer with 0.1M NaCl. Any remaining protein was eluted with elution buffer (2% by volume glacial acetic acid in water).
A Gilson FC204 fraction collector at the HPLC outlet collected individual eluates for further analysis. Fractions collected from the 2% acetic acid eluates were neutralized with 2M Tris, pH 10.5 to bring the pH to neutrality. The protein samples were reconstituted in equilibration buffer unless otherwise stated. The samples were analyzed by the integration of the absorbance at 280 nm or by immunonephelometry. The specific method of determination is presented for each figure.
Tables 2 and 3 present the elution profiles for 19 sequences based on the injection of 1 mg AlPI in equilibration buffer at 4° C. and 20° C., respectively. The columns were run at a constant flow rate of865 μl/min (413 cm/hr) or 523 μl/min (250 cm/hr). No dependence of the elution profile with flow rate was found. The Percent AlPI Eluted by Fraction represents the amount eluted in the flowthrough, 1M NaCl wash, and 2% acetic acid fractions relative to the total AlPI eluted. The percentages are based on either the integration of the peak areas at […]

[1] = VIWLVR N-terminal point mutations, 4° C.

T1 sequence (P01009 25-418): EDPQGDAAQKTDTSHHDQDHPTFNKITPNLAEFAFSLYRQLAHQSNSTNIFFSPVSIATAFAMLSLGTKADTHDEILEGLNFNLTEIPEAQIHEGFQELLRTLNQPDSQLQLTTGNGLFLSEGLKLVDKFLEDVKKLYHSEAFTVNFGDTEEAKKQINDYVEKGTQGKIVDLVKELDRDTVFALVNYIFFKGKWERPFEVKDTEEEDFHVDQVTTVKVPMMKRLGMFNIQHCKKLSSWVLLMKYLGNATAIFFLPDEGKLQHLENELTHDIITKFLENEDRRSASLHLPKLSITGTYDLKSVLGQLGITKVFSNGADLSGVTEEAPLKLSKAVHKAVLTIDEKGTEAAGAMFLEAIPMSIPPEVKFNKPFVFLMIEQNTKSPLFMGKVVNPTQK

Ac-RVLFIV: N-terminal acetylated Ac-RVLFIV (listed under SEQ ID No:61)
Percent AlPI Eluted by Fraction, 1M NaCl (4° C.): 11% | Percent AlPI Eluted by Fraction, 2% Acetic Acid (4° C.): 13% | Percent AlPI Eluted by Fraction, Flowthrough (4° C.): 76% | Percent AlPI Eluted by Fraction, 1M NaCl (20° C.): 31% | Percent AlPI Eluted by Fraction, 2% Acetic Acid (20° C.): 50% | Percent AlPI Eluted by Fraction, Flowthrough (20° C.): 19%

Ac-V I F L V R: N-terminal acetylated sequence Ac-VIFLVR (listed under SEQ ID No:37) (not fully specified (C-terminus); printed as Ac-VIFLVR)
% of Total A1PI Eluted by Fraction (Based on Absorbance at 280 nm), 1M NaCl (VIFLVR point mutations, 4° C.): 2% | % of Total A1PI Eluted by Fraction (Based on Absorbance at 280 nm), 2% Acetic Acid (VIFLVR point mutations, 4° C.): 22% | % of Total A1PI Eluted by Fraction (Based on Absorbance at 280 nm), Flowthrough (VIFLVR point mutations, 4° C.): 76% | % of Total A1PI Eluted by Fraction (Based on Absorbance at 280 nm), 1M NaCl (VIFLVR point mutations, 20° C.): 0% | % of Total A1PI Eluted by Fraction (Based on Absorbance at 280 nm), 2% Acetic Acid (VIFLVR point mutations, 20° C.): 0% | % of Total A1PI Eluted by Fraction (Based on Absorbance at 280 nm), Flowthrough (VIFLVR point mutations, 20° C.): 100%

D I F L V R: point mutation of VIFLVR, position 1 (DIFLVR)
% of Total A1PI Eluted by Fraction (Based on Absorbance at 280 nm), 1M NaCl (VIFLVR point mutations, 4° C.): 6% | % of Total A1PI Eluted by Fraction (Based on Absorbance at 280 nm), 2% Acetic Acid (VIFLVR point mutations, 4° C.): 10% | % of Total A1PI Eluted by Fraction (Based on Absorbance at 280 nm), Flowthrough (VIFLVR point mutations, 4° C.): 84% | % of Total A1PI Eluted by Fraction (Based on Absorbance at 280 nm), 1M NaCl (VIFLVR point mutations, 20° C.): 9% | % of Total A1PI Eluted by Fraction (Based on Absorbance at 280 nm), 2% Acetic Acid (VIFLVR point mutations, 20° C.): 21% | % of Total A1PI Eluted by Fraction (Based on Absorbance at 280 nm), Flowthrough (VIFLVR point mutations, 20° C.): 70%

DDWLVR: point mutation of VIWLVR on Ala-Totda-Toyopearl (not fully specified (C-terminus))
% of Total A1PI Eluted by Fraction (Based on Absorbance at 280 nm), 1M NaCl [1]: 0% | % of Total A1PI Eluted by Fraction (Based on Absorbance at 280 nm), 2% Acetic Acid [1]: 1% | % of Total A1PI Eluted by Fraction (Based on Absorbance at 280 nm), Flowthrough [1]: 99%

DHWLVR: point mutation of VIWLVR on Ala-Totda-Toyopearl (not fully specified (C-terminus))
% of Total A1PI Eluted by Fraction (Based on Absorbance at 280 nm), 1M NaCl [1]: 37% | % of Total A1PI Eluted by Fraction (Based on Absorbance at 280 nm), 2% Acetic Acid [1]: 10% | % of Total A1PI Eluted by Fraction (Based on Absorbance at 280 nm), Flowthrough [1]: 53%

DNWLVR: point mutation of VIWLVR on Ala-Totda-Toyopearl (not fully specified (C-terminus))
% of Total A1PI Eluted by Fraction (Based on Absorbance at 280 nm), 1M NaCl [1]: 9% | % of Total A1PI Eluted by Fraction (Based on Absorbance at 280 nm), 2% Acetic Acid [1]: 1% | % of Total A1PI Eluted by Fraction (Based on Absorbance at 280 nm), Flowthrough [1]: 90%

DSWLVR: point mutation of VIWLVR on Ala-Totda-Toyopearl (not fully specified (C-terminus))
% of Total A1PI Eluted by Fraction (Based on Absorbance at 280 nm), 1M NaCl [1]: 10% | % of Total A1PI Eluted by Fraction (Based on Absorbance at 280 nm), 2% Acetic Acid [1]: 0% | % of Total A1PI Eluted by Fraction (Based on Absorbance at 280 nm), Flowthrough [1]: 90%

HDWLVR: point mutation of VIWLVR on Ala-Totda-Toyopearl (not fully specified (C-terminus))
% of Total A1PI Eluted by Fraction (Based on Absorbance at 280 nm), 1M NaCl [1]: 30% | % of Total A1PI Eluted by Fraction (Based on Absorbance at 280 nm), 2% Acetic Acid [1]: 0% | % of Total A1PI Eluted by Fraction (Based on Absorbance at 280 nm), Flowthrough [1]: 70%

HHWLVR: point mutation of VIWLVR on Ala-Totda-Toyopearl (not fully specified (C-terminus))
% of Total A1PI Eluted by Fraction (Based on Absorbance at 280 nm), 1M NaCl [1]: 86% | % of Total A1PI Eluted by Fraction (Based on Absorbance at 280 nm), 2% Acetic Acid [1]: 14% | % of Total A1PI Eluted by Fraction (Based on Absorbance at 280 nm), Flowthrough [1]: 0%

HNWLVR: point mutation of VIWLVR on Ala-Totda-Toyopearl (not fully specified (C-terminus))
% of Total A1PI Eluted by Fraction (Based on Absorbance at 280 nm), 1M NaCl [1]: 92% | % of Total A1PI Eluted by Fraction (Based on Absorbance at 280 nm), 2% Acetic Acid [1]: 8% | % of Total A1PI Eluted by Fraction (Based on Absorbance at 280 nm), Flowthrough [1]: 0%

HSWLVR: point mutation of VIWLVR on Ala-Totda-Toyopearl (not fully specified (C-terminus))
% of Total A1PI Eluted by Fraction (Based on Absorbance at 280 nm), 1M NaCl [1]: 89% | % of Total A1PI Eluted by Fraction (Based on Absorbance at 280 nm), 2% Acetic Acid [1]: 11% | % of Total A1PI Eluted by Fraction (Based on Absorbance at 280 nm), Flowthrough [1]: 0%

IIe Lys Arg Tyr Tyr Leu (IKRYYL)
Percent A1PI Eluted by Fraction Based on Absorbance at 280 nm, 1M NaCl (4° C.): 97% | Percent A1PI Eluted by Fraction Based on Absorbance at 280 nm, 2% Acetic Acid (4° C.): 3% | Percent A1PI Eluted by Fraction Based on Absorbance at 280 nm, Flowthrough (4° C.): 0% | Percent A1PI Eluted by Fraction, 1M NaCl (20° C.): 92% | Percent A1PI Eluted by Fraction, 2% Acetic Acid (20° C.): 8% | Percent A1PI Eluted by Fraction, Flowthrough (20° C.): 0%

IKRYYN
Percent A1PI Eluted by Fraction Based on Absorbance at 280 nm, 1M NaCl (4° C.): 100% | Percent A1PI Eluted by Fraction Based on Absorbance at 280 nm, 2% Acetic Acid (4° C.): 0% | Percent A1PI Eluted by Fraction Based on Absorbance at 280 nm, Flowthrough (4° C.): 0% | Percent A1PI Eluted by Fraction, 1M NaCl (20° C.): 95% | Percent A1PI Eluted by Fraction, 2% Acetic Acid (20° C.): 5% | Percent A1PI Eluted by Fraction, Flowthrough (20° C.): 0%
